This is an account of results in patent US20160144050A1 (PHAROSGEN, published 2016).

The target in data set [1] is HSA-maleimide-KGDEVD-PABC-doxorubicin (SEQ ID NO: 28).
Data set [2] deals with T1, human serum albumin (HSA) (human, UniProt P02768 25-609).
T1 construct: also called commercially available human serum albumin; human serum albumin in human plasma
Description: analytical HPLC; 100 µM conjugate with 700 µM purchased HSA in PBS, room temperature; covalent binding. How it is done: A human serum albumin (HSA) solution was prepared in PBS at final concentration of 700 μM. […] The samples were subjected to analytical HPLC (see FIG. 21).

Primed or numbered codes have the meaning given here. No end group written: not given here. *: point of attachment. Hexanoyl(6-maleimido) = O=C1C=CC(=O)N1CCCCCC(=O)*; PABC′ = p-aminobenzylcarbamate

B1: recombinant human caspase-3 (protein)
chain: SGISLDNSYKMDYPEMGLCIIINNKNFHKSTGMTSRSGTDVDAANLRETFRNLKYEVRNKNDLTREEIVELMRDVSKEDHSKRSSFVCVLLSHGEEGIIFGTNGPVDLKKITNFFRGDRCRSLTGKPKLFIIQACRGTELDCGIETDSGVDDDMACHKIPVEADFLYAYSTAPGYYSWRNSKDGSWFIQSLCAMLKQYADKLEFMHILTRVNRKVATEFESFSFDATFHAKKQIPCIVSMLTKELYFYH
For the molecule B1, the “HPLC monitored cleavage; liberation of free doxorubicin” value in data set [1] is given as “The free doxorubicin was completely liberated from the HSA-maleimide-KGDEVD-PABC-doxorubicin (SEQ ID NO: 28) conjugate within 1 hour”.
Regarding K(Hexanoyl(6-maleimido))GDEVD-{PABC′-doxorubicin} (not fully specified (N-terminus), Peptide-drug prodrug conjugate) [maleimide-KGDEVD-PABC-doxorubicin (SEQ ID NO: 10)], the binding result in data set [2] was “binds”.
